Laboratory results reported in US7803762B1, “Ready-to-use bivalirudin compositions” (The Medicines Company, priority 2009, dated 2010).

Test: Investigation of pH of bivalirudin solutions (degradation at pH 2-6)
Type: physicochemical
Conditions: 1 mg/ml aqueous solution
Experimental: The degradation pathway of bivalirudin was investigated by preparing aqueous solutions at 1 mg/ml of bivalirudin at pH 2, 3, 4, 5 and 6 (Table 1). […] The excessive degradation observed was attributed to a change in pH during storage wherein the final pH of the bivalirudin compositions was about 7.

In the case of “D-Phenylalanyl-L-Prolyl-L-Arginyl-L-Prolyl-Glycyl-Glycyl-Glycyl-Glycyl-L-Asparagyl-Glycyl-L-Aspartyl-L-Phenylalanyl-L-Glutamyl-L-Glutamyl-L-Isoleucyl-L-Prolyl-L-Glutamyl-L-Glutamyl-L-Tyrosyl-L-Leucine trifluoroacetate (salt) hydrate [bivalirudin]”, the “Asp^9-Bivalirudin” value (pH 2, 25° C./1 month) is reported as 2.58 % AUC, the “Total Degradants” value (pH 2, 25° C./1 month) is reported as 64.8 % AUC and the “Asp^9-Bivalirudin” value (pH 2, Initial) is reported as 0.45 % AUC. For the same substance, the “Total Degradants” value (pH 2, Initial) was 0.6 % AUC, the “Asp^9-Bivalirudin” value (pH 3, 25° C./1 month) was 2.71 % AUC and the “Total Degradants” value (pH 3, 25° C./1 month) was 37.7 % AUC. The “Asp^9-Bivalirudin” value (pH 3, Initial) was 0.76 % AUC, the “Total Degradants” value (pH 3, Initial) was 0.9 % AUC and the “Asp^9-Bivalirudin” value (pH 4, 25° C./1 month) was 1.26 % AUC. The “Total Degradants” value (pH 4, 25° C./1 month) was 51.1 % AUC, the “Asp^9-Bivalirudin” value (pH 4, Initial) was 0.59 % AUC and the “Total Degradants” value (pH 4, Initial) was 3.1 % AUC. The “Asp^9-Bivalirudin / Total Degradants” value (pH 5, 25° C./1 month) was “complete degradation”, the “Asp^9-Bivalirudin” value (pH 5, Initial) was 0.84 % AUC and the “Total Degradants” value (pH 5, Initial) was 3.4 % AUC. The “Asp^9-Bivalirudin / Total Degradants” value (pH 6, 25° C./1 month) was “complete degradation”, the “Asp^9-Bivalirudin” value (pH 6, Initial) was 1.19 % AUC and the “Total Degradants” value (pH 6, Initial) was 4.7 % AUC.
